These results are taken from US20220356230A1 (published 2022).

Substitutions are numbered along the chain they refer to.

In assay [1] the target is SARS-CoV-2 Spike Protein (S1 Subunit, Fc Tag) (Sino 40591-V02H) (SARS-CoV-2, UniProt P0DTC2 16-685). Put plainly: Luminex bead assay, supernatant on antigen microspheres.
In assay [2] the target is SARS-CoV-2 Spike Protein (S1 Subunit, His Tag) (Sino 40591-V08H) (SARS-CoV-2, UniProt P0DTC2 16-685). Described as above.
The target in assay [3] is SARS-CoV-2 Spike Protein (S1 Subunit, Fc Tag) (Sino 40591-V02H) (SARS-CoV-2, UniProt P0DTC2 16-685). Briefly: Luminex bead assay, antibody supernatant, antigen on microspheres.
For assay [4], the target named is SARS-CoV-2 Spike Protein (S1 Subunit, His Tag) (Sino 40591-V08H) (SARS-CoV-2, UniProt P0DTC2 16-685). Described as above.

B1: mAb10989 (antibody, V domains shown)
VH: QVQLVQSGAEVKKPGASVKVSCKASGYIFTGYYMHWVRQAPGQGLEWMGWINPNSGGANYAQKFQGRVTLTRDTSITTVYMELSRLRFDDTAVYYCARGSRYDWNQNNWFDPWGQGTLVTVSS
VL: QSALTQPASVSGSPGQSITISCTGTSSDVGTYNYVSWYQQHPGKAPKLMIFDVSNRPSGVSDRFSGSKSGNTASLTISGLQAEDEADYYCSSFTTSSTVVFGGGTKLTVLG
In the case of B1, the “Binding signal (MFI)” value in assay [1] is 12300 MFI; in assay [2], 14200 MFI.

B2: mAb10937 (antibody, V domains shown)
VH: QITLKESGPTLVKPTQTLTLTCTFSGFSLSTNVVGVGWIRQPPGKALEWLALIYWNDDKRYSPSLKSRLTITKDTSKNQVVLTMTNMDPVDTATYYCAHGPTGDYFDYWGQGTLVTVSS
VL: not shown
Take B2: the “Binding signal (MFI)” value was 19600 MFI in assay [3] and 26400 MFI in assay [4].

B3: mAb10971 (antibody, V domains shown)
VH: EVQLVESGGGLIQPGGSLRLSCAASGVTVSSNYMSWVRQAPGKGLEWVSVIYSGGSTFYSDSVKGRFSISRDNSKNTLYLQMNSLRAEDTAVYYCARDLYYYGMDVWGQGTTVTVSS
VL: DIQLTQSPSFLSASVGDRVTITCRASQGISTYLAWYQQKPGKAPKLLIYAASTLQSGVPSRFSGSGSGTEFTLTISSLQPEDFATYYCQQLDSYPGLTFGGGTKVEIKR
With B3, the “Binding signal (MFI)” value worked out at 17000 MFI in assay [1] and 21600 MFI in assay [2].

B4: mAb10921 (antibody, V domains shown)
VH: EVQLVESGGGLVQPGGSLRLSCAASGITVSSNYMSWVRQAPGKGLEWVSVIYSGGSTFYADSVKGRFTISRHNSKNTLYLQMNSLRAEDTAVYYCARERNFDAFDIWGQGTMVTVSS
VL: DIQMTQSPSSVSASVGDRVTITCRASQGISSWLAWYQQKPGKAPKLLIYAASSLQSGVPSRFSGSGSGTDFTLTISSLQPEDFATYYCQQANSFPLFTFGPGTKVDIKR
As for B4, the results for the “Binding signal (MFI)” value in assay [3] and in assay [4] were 8960 MFI and 12200 MFI, respectively.

B5: mAb10957 (antibody, V domains shown)
VH: B3 VH with I12V, S60A, S68T, Y79F, A87I, Y100G, Y101P
VL: B3 VL with T31S, E70Q, T72I, D92N, L97F, G101P, E106D
As to B5, the entries for the “Binding signal (MFI)” value in assay [1] and in assay [2] were 8450 MFI and 12000 MFI, respectively.

B6: mAb10913 (antibody, V domains shown)
VH: EVQLVESGGGLVQPGGSLRLSCAASGFTFRNYEMNWVRQAPGKGLEWVSYITSSGSTMYYADSVKGRFTISRDNAKNSLYLQMNSLRAEDTAVYYCARDGFYYYYAMDVWGQGTTVTVSS
VL: QSVLTQPPSVSAAPGQKVTISCSGSSSNIGNNYVSWYQQLPGTAPKLLIYDNNKRPSGIPDRFSGSKSGTSATLGITGLQTGDEADYYCGTWDSSLSVGRVFGTGTKVTVLG
Regarding B6, the results for the “Binding signal (MFI)” value in assay [3] and in assay [4] were 18900 MFI and 24900 MFI, respectively.

B7: mAb10964 (antibody, V domains shown)
VH: QVQLQESGPGLVKPSETLSLTCTVSGGSINNYYWIWIRQPPGKGLEWIGYIYHSGSTNYNPSLKSRVTISVDTSKNQFSLKVSSVTAADTAVYYCANMVRGVYEDDYWGQGTLVTVSS
VL: DIQMTQSPSSLSASVGDRVTITCRASQSISNYLNWYQQKPGKAPKLLIFAASSLRSGVPSRFSGSGSGTDFTLTISSLHPEDFATYYCQQNYNTPLTFGPGTKVDIKR
As to B7, the “Binding signal (MFI)” value in assay [1] came to 18600 MFI; in assay [2] it was 24200 MFI.

B8: mAb10934 (antibody, V domains shown)
VH: not shown
VL: DIQMTQSPSSLSASVGDRVTITCQASQDIWNYINWYQQKPGKAPKLLIYDASNLKTGVPSRFSGSGSGTDFTFTISSLQPEDIATYYCQQHDDLPPTFGQGTKVEIKR
For the molecule B8, the “Binding signal (MFI)” value was determined as 20600 MFI in assay [3] and 27500 MFI in assay [4].

B9: mAb10967 (antibody, V domains shown)
VH: EVQLVESGGGLVQPGGSLRLSCAASGFTVSSNYMSWVRQAPGKGLEWVSVIYPGGSTFYADSVKGRFTISRDNSKNTLYLQMNSLRAEDTAVYYCARDQRDFAWGQGTLVTVSS
VL: B8 VL with W30S, I33L, K55E, S77G, H91Y, D93N, K103R, V104L
B9: the entries for the “Binding signal (MFI)” value in assay [1] and in assay [2] were 15800 MFI and 21900 MFI, respectively.

B10: mAb10935 (antibody, V domains shown)
VH: EVQLVESGGGLVQPGGSLRLSCAASGFTVSSNYMSWVRQAPGKGLEWVSLIYSGGSTYYADSVKGRFTISRHNSKNTLYLQMNSLRSEDTAVYYCARVPLGDYYYGMDVWGQGTTVTVSS
VL: B8 VL with W30N, N31K, I33L, K55E, H91S, D93N, P96L, Q100G
For B10, the “Binding signal (MFI)” value in assay [3] is 20000 MFI; in assay [4], 25600 MFI.

B11: mAb10954 (antibody, V domains shown)
VH: EVQLVESGGGLVQPGGSLRLSCAASGITVSSNYMSWVRQAPGKGLEWVSLIYSGGSTYYADSVKGRFTISRDNSKNTLYLQMNSLRVEDTAVYYCARDHGMAAAGYNYWGQGTLVTVSS
VL: B8 VL with W30N, N31K, I33L, K55E, S76N, I83F, Y87F, H91Y, D93N, T97A
In the case of B11, the entries for the “Binding signal (MFI)” value in assay [1] and in assay [2] were 16600 MFI and 21300 MFI, respectively.

B12: mAb10932 (antibody, V domains shown)
VH: EVQLVESGGGLVQSGGSLRLSCAASGLTVSSNYMSWVRQAPGKGLEWVSVIYSGGSTFYSDSVKGRFTISRHNSKNTLYLQMNSLRAEDTAVYYCARARGDAFDIWGQGTMVTVSS
VL: not shown
Consider B12, for which the “Binding signal (MFI)” value came to 17600 MFI in assay [3] and 22100 MFI in assay [4].

B13: mAb10939 (antibody, V domains shown)
VH: EVQLVESGGGLVQPGGSLRLSCAASGLTVSSNYMNWVRQVPGKGLEWVSVIYSGGSKFYVDSVKGRFTISRHNSKNTLYLQMNSLRPEDTAVYYCTRDAQYYGMDVWGQGTTVTVSS
VL: DIQMTQSPSSLSASVGDRVTITCRASQSISTYLHWYQQKPGEAPKLLIYAASSLQSGVPSRFSGSGSGTDFTLTISSLQPEDFATYYCQQSYSTPPEIFGQGTKLEIKR
For B13, the entries for the “Binding signal (MFI)” value in assay [3] and in assay [4] were 18200 MFI and 23900 MFI, respectively.

B14: mAb10956 (antibody, V domains shown)
VH: B3 VH with I12V, V27L, S60A, S68T, Y100I, Y101K
VL: not shown
Regarding B14, the “Binding signal (MFI)” value in assay [1] was 15000 MFI; in assay [2], 20000 MFI.

B15: mAb10930 (antibody, V domains shown)
VH: EVQLVESGGGLVQPGRSLRLSCAASGFTFDDYAMYWVRQAPGKGLEWVSGISWNSGSIGYADSVKGRFTISRDNAKNSLYLQMNSLRAADTALYYCAKDKDWNSRGYYYYGMDVWGQGTTVTVSS
VL: not shown
Regarding B15, the “Binding signal (MFI)” value amounted to 16500 MFI in assay [3] and 21200 MFI in assay [4].

B16: mAb10982 (antibody, V domains shown)
VH: EVQLVESGGGLVQPGGSLRLSCAASGLTVSSNYMSWVRQAPGKGLEWVSVIYSGGTTYYADSVKGRFTISRHNSKNTLSLQMNSLRAEDTAVYYCARGEGANYYGMDVWGQGTTVTVSS
VL: QSVLTQPPSVSGAPGQRVTISCTGSSSNIGTGYDVHWYQQLPGTAPKLLIYGNSNRPSGVPDRFSGSKSGTSASLAITGLQAEDEADYYCQSYDSSLSGYVVFGGGTKLTVLG
Take B16: the “Binding signal (MFI)” value was 10800 MFI in assay [3] and 14000 MFI in assay [4].

B17: mAb10986 (antibody, V domains shown)
VH: EVQLVESGGGLVQPGGSLRLSCAASEFTVSSNYMSWVRQAPGKGLEWVSVIYSGGSTFYADSVKGRFTISRDNSKNTLYLQMNSLRAEDTAVYYCARALPYGDLHFDYWGQGTLVTVSS
VL: B16 VL with S54T, G99D, Y100S, V101Y, G105T, L109V
Take B17: the “Binding signal (MFI)” value in assay [1] amounted to 16000 MFI; in assay [2], 19100 MFI.

B18: mAb10985 (antibody, V domains shown)
VH: EVQLVESGGGLVQPGRSLRLSCAASGFTFDDYAMHWVRQAPGKGLEWVSGISWNRGSIGYADSVKGRFTISRDNAKNSLYLQMSSLRAEDTALYYCAKDGERWDSVVVPSARNGMDVWGQGTTVTVSS
VL: B16 VL with T31A, Y100S, V101Y, G105T, L109V
With B18, in assay [1], the “Binding signal (MFI)” value turned out to be 16200 MFI.

B19: mAb10966 (antibody, V domains shown)
VH: EVQLVESGGGLVQPGGSLRLSCAASGLTVSSNYMSWVRQAPGKGLEWVSVIYSGGSTFYADSVKGRFTISRDNSKNTLYLQMNSLRPEDTAVYYCAREGRIAATGYGMDVWGQGTTVTVSS
VL: not shown
As for B19, the “Binding signal (MFI)” value worked out at 16400 MFI in assay [1] and 23300 MFI in assay [2].
